Test [1] has as its target T1, active-form HB-EGF protein (R&D Systems, Inc., 259-HE) (human, UniProt Q99075 63-148). The test is described as follows: cell-based or functional assay.
Test [2] concerns the target T1, active-form HB-EGF protein (R&D …). The test is described as follows: competition ELISA: inhibition of HB-EGF (50 ng/mL) binding to immobilised EGFR-Fc.
The target is the same in test [3]. Kind of test: ELISA, purified antibody on plate coated with 1 µg/mL HB-EGF; given as ED50.
The target is the same in test [4]. The test is described as follows: cell-based or functional assay. The source holds these as a separate data set.
The target is the same in test [5]. Kind of test: ELISA, purified antibody on plate coated with 1 µg/mL HB-EGF; printed as ED50 (antibody concentration that gave 50% binding).

T1 sequence (Q99075 63-148 limits assumed): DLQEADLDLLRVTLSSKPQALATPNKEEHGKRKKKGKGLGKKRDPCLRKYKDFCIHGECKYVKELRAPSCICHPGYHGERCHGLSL

B1: HE-39 (antibody, V domains shown)
VH: EVQLQQSGPELMKPGASVKMSCKASGYIFTDYYMNWVKQSHGKSLEWIGRVNPNNGGTSYSQKFKDKATLTVDKSLNTAYMQVNSLTSEDSAVYYCARIYYGGSDWGQGTTLTVSS
VL: EIVMTQTPLSLSVTIGQPASISCKSSQSLLYTTGKTYLNWLQQRPGQAPKHLMYQVSKLVPGIPDRFSGSGSETDFTLKISRVEAEDLGVYYCLQGTYYPHTFGSGTKLEIK
Consider B1, for which the “Inhibition of HB-EGF-dependent growth (EC50, nmol/L)” value in test [1] was determined as 0.83 nmol/L. Further, the EC50 in test [2] came to 0.86 nM; in test [3], 0.016 nM.

B2: HC-15 (antibody, V domains shown)
VH: EVQLQQSGPELVKPGASVKISCKASGYSFTGYYMHWVKQSPEKRLEWIGEINPRTGITTYNQKFKAKATLTVDKSSSTAYMQLKSLTSEDSAVYYCARVGSSGPFTYWGQGTLVTVSA
VL: DIVMTQSPSSLSVSAGDKVTMSCKSSQSLLNSRNQKNYLAWYQQKPWQPPKLLIYGASTRESGVPDRFTGSGSGTDFTLTISSVQAEDLAVYYCQNDYSYPFTFGTGTKLEIK
As to B2, in test [1], the “Inhibition of HB-EGF-dependent growth (EC50, nmol/L)” value amounted to 2.06 nmol/L. Moreover, the concentration for a half-maximal effect (EC50) in test [2] is 0.52 nM; in test [3], 0.65 nM; in test [5] it was 0.2 nM. Besides, the “EC50 (nM), growth-inhibiting effect on EGFR_Ba/F3 cells” value in test [4] turned out to be 3.8 nM.

The record behind these values is patent publication US20100266502A1 (Chugai, published 2010).
